# Values of other authors in article PMC8625919.
# Several values for one entry are separate records, joined by “and”; a condition that tells them apart may be missing. Identical values can stand only once.
# Tests used:
# [1] = target: Neuropilin-1 (Homo sapiens) (UniProt O14786); test: ELISA type assay with AP-VEGF164
# [2] = target: VEGFR-2D2-3 D2-3 (Homo sapiens) (UniProt P35968); test: ITC
# [3] = target: VEGFR-2D2-3 D2-3 (Homo sapiens) (UniProt P35968); test: SPR
# [4] = target: VEGFR-2 (Homo sapiens) (UniProt P35968)
# [5] = target: VEGFR-1D1-3 D1-3 (Homo sapiens) (UniProt P17948); test: ITC
# [6] = target: VEGFR-1D1-7 D1-7 (Homo sapiens) (UniProt P17948); test: ITC
# [7] = target: VEGFR-3 D1-3 (Homo sapiens) (UniProt P35916)
# [8] = target: VEGFR-3 D1-2 (Homo sapiens) (UniProt P35916)
# [9] = target: VEGFR-3 D1-5 (Homo sapiens) (UniProt P35916)
# [10] = target: VEGFR-3D1-2 D1-2 (Homo sapiens) (UniProt P35916); test: ITC
# [11] = target: VEGFR-3D1-3 D1-3 (Homo sapiens) (UniProt P35916); test: ITC
# [12] = target: VEGFR-3D1-5 D1-5 (Homo sapiens) (UniProt P35916); test: ITC
# Sequence of UniProt O14786 (O14786 22-923): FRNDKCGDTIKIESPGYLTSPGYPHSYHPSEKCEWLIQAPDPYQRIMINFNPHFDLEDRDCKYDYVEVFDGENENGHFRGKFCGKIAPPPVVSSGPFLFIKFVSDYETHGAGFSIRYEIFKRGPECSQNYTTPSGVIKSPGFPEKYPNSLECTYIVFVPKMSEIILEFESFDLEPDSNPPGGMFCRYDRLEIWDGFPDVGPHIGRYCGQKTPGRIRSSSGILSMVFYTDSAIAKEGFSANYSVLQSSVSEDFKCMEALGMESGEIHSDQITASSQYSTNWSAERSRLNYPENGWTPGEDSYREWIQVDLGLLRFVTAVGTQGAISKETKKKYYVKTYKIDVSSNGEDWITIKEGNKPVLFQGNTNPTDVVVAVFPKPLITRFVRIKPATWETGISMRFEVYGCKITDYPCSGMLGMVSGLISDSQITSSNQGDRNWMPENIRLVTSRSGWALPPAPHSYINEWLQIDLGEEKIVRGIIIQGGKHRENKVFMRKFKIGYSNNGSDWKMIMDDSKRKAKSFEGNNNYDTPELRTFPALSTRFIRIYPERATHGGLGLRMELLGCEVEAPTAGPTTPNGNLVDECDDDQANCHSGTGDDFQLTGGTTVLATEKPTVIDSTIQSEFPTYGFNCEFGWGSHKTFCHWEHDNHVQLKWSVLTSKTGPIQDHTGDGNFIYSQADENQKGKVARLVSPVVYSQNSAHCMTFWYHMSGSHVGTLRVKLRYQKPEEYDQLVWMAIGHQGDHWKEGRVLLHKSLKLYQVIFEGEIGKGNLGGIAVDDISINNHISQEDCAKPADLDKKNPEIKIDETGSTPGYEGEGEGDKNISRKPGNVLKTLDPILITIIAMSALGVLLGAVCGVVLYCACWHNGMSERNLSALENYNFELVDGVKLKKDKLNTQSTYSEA
substance,measurement,setting,value
VEGF164 (from UniProt Q00731),Kd,[1],3 nM
VEGF165 (from UniProt P15692),Kd,[2],170 nM and 18 nM
same,Kd,[3],36.7 nM
VEGF-A (from UniProt P15692),Kd,[4],0.113 nM
same,Kd,[5],47 nM
same,Kd,[6],1.7 nM
VEGF-C (from UniProt P49767),Kd,[7],140 nM
same,Kd,[8],250 nM
same,Kd,[9],3.7 nM
same,Kd,[2],16 nM
same,Kd,[10],250 nM
same,Kd,[11],140 nM
same,Kd,[12],3.7 nM
same,Kd,[3],18.2 nM
